Measurements published in the Human Domainome abundance scans (Beltran et al. 2025).
± gives the uncertainty stated by the source.

B1: Androgen receptor, residues 557 to 632; numbered along this chain, P10275 (parent)
chain: QKTCLICGDEASGCHYGALTCGSCKVFFKRAAEGKQKYLCASRNDCTIDKFRRKNCPSCRLRKCYEAGMTLGARKL
B2: FERM and PDZ domain-containing protein 4, residues 75 to 154; numbered along this chain, Q14CM0 (parent)
chain: APRKVEMRRDPVLGFGFVAGSEKPVVVRSVTPGGPSEGKLIPGDQIVMINDEPVSAAPRERVIDLVRSCKESILLTVIQP

Variants of: B1
Assay: abundance fitness (aPCA) (normalised: wild type 0, dead -1); higher = more abundant; growth selection in yeast, the domain comes from the species named
Conditions: Homo sapiens
Variant G68D has an abundance fitness of -0.581 ± 0.47.
A73V showed an abundance fitness of -0.054 ± 0.067.
A73Q showed an abundance fitness of -0.138 ± 0.1.
A73W showed an abundance fitness of -0.203 ± 0.071.
A73Y gave an abundance fitness of -0.166 ± 0.22.
In the case of A73N, the abundance fitness is reported as -0.047 ± 0.17.
Work on A73R yielded an abundance fitness of 0.008 ± 0.059.
For A73T, the abundance fitness was -0.205 ± 0.27.
A73M showed an abundance fitness of -0.18 ± 0.12.
A73G gave an abundance fitness of -0.06 ± 0.06.
With A73S the abundance fitness was 0 ± 0.084.
A73I gave an abundance fitness of -0.101 ± 0.14.
Variant A73P has an abundance fitness of -0.44 ± 0.15.
A73F showed an abundance fitness of -0.326 ± 0.12.
In the case of A73E, the abundance fitness is reported as 0.013 ± 0.068.
In the case of A73C, the abundance fitness is reported as -0.297 ± 0.12.
Variant A73K has an abundance fitness of -0.2 ± 0.12.
In the case of A73L, the abundance fitness is reported as -0.176 ± 0.073.
A73D showed an abundance fitness of -0.026 ± 0.07.
Work on L71N yielded an abundance fitness of -0.129 ± 0.072.
Variant L71Y has an abundance fitness of -0.043 ± 0.065.
Variant L71E has an abundance fitness of -0.114 ± 0.15.
Variant L71H has an abundance fitness of -0.164 ± 0.084.
For L71D, the abundance fitness was -0.185 ± 0.15.
With L71K the abundance fitness was 0.041 ± 0.1.
Work on L71F yielded an abundance fitness of 0.103 ± 0.073.
With L71G the abundance fitness was -0.128 ± 0.097.
Variant L71M has an abundance fitness of 0.115 ± 0.078.
L71R gave an abundance fitness of -0.25 ± 0.066.
L71T gave an abundance fitness of 0.073 ± 0.059.
L71I gave an abundance fitness of -0.021 ± 0.068.
In the case of L71W, the abundance fitness is reported as -0.151 ± 0.11.
L71V showed an abundance fitness of -0.085 ± 0.064.
Variant L71P has an abundance fitness of -0.15 ± 0.075.
Work on L71Q yielded an abundance fitness of -0.043 ± 0.1.
In the case of L71A, the abundance fitness is reported as -0.142 ± 0.095.
G72H gave an abundance fitness of -0.046 ± 0.15.
In the case of G72S, the abundance fitness is reported as -0.092 ± 0.1.
In the case of G72Y, the abundance fitness is reported as -0.074 ± 0.13.
With G72N the abundance fitness was -0.136 ± 0.13.
In the case of G72W, the abundance fitness is reported as -0.076 ± 0.12.
In the case of G72V, the abundance fitness is reported as -0.062 ± 0.075.
In the case of G72Q, the abundance fitness is reported as 0.089 ± 0.13.
Work on G72C yielded an abundance fitness of -0.075 ± 0.13.
With G72R the abundance fitness was -0.009 ± 0.069.
In the case of G72L, the abundance fitness is reported as -0.062 ± 0.068.
Work on G72T yielded an abundance fitness of -0.056 ± 0.12.
G72F gave an abundance fitness of 0.06 ± 0.11.
In the case of G72A, the abundance fitness is reported as -0.011 ± 0.075.
G72E showed an abundance fitness of 0.126 ± 0.088.
For G72K, the abundance fitness was -0.134 ± 0.14.
Work on G72D yielded an abundance fitness of 0.098 ± 0.11.
For L76S, the abundance fitness was -0.084 ± 0.086.
For R74I, the abundance fitness was -0.317 ± 0.13.
R74C showed an abundance fitness of 0.06 ± 0.082.
For R74T, the abundance fitness was 0.088 ± 0.092.
In the case of R74A, the abundance fitness is reported as -0.119 ± 0.068.
R74V gave an abundance fitness of -0.063 ± 0.068.
Variant R74E has an abundance fitness of 0.066 ± 0.1.
R74G gave an abundance fitness of 0.05 ± 0.05.
With R74S the abundance fitness was -0.032 ± 0.059.
In the case of R74K, the abundance fitness is reported as -0.263 ± 0.27.
For R74Q, the abundance fitness was 0.023 ± 0.1.
R74W gave an abundance fitness of -0.19 ± 0.081.
R74M gave an abundance fitness of -0.056 ± 0.1.
In the case of R74F, the abundance fitness is reported as -0.165 ± 0.15.
R74P gave an abundance fitness of 0.13 ± 0.1.
R74N showed an abundance fitness of -0.044 ± 0.1.
With R74H the abundance fitness was -0.036 ± 0.12.
R74L gave an abundance fitness of -0.18 ± 0.089.
Variant K63T has an abundance fitness of -0.033 ± 0.068.
K63V showed an abundance fitness of -0.142 ± 0.066.
Work on K63R yielded an abundance fitness of -0.079 ± 0.071.
Work on K63Y yielded an abundance fitness of -0.704 ± 0.2.
K63S showed an abundance fitness of -0.227 ± 0.07.
For K63W, the abundance fitness was -0.482 ± 0.19.
Work on C64K yielded an abundance fitness of -0.805 ± 0.29.
Work on C64A yielded an abundance fitness of -0.306 ± 0.096.
Work on C64F yielded an abundance fitness of -0.745 ± 0.48.
C64M gave an abundance fitness of -0.125 ± 0.12.
C64L gave an abundance fitness of -0.592 ± 0.16.
Work on C64R yielded an abundance fitness of -1.06 ± 0.32.
Variant C64N has an abundance fitness of -0.505 ± 0.45.
For C64V, the abundance fitness was -0.879 ± 0.27.
In the case of C64T, the abundance fitness is reported as -0.553 ± 0.2.
C64G gave an abundance fitness of -0.606 ± 0.11.
In the case of T70I, the abundance fitness is reported as -0.344 ± 0.29.
With Y65T the abundance fitness was -0.276 ± 0.1.
Y65Q gave an abundance fitness of -0.037 ± 0.14.
Y65K showed an abundance fitness of -0.178 ± 0.11.
Work on Y65L yielded an abundance fitness of -0.081 ± 0.073.
For Y65A, the abundance fitness was -0.158 ± 0.085.
Y65R gave an abundance fitness of -0.117 ± 0.049.
Y65F showed an abundance fitness of -0.056 ± 0.1.
In the case of Y65C, the abundance fitness is reported as 0.036 ± 0.11.
Work on Y65D yielded an abundance fitness of -0.17 ± 0.17.
Y65N gave an abundance fitness of -0.062 ± 0.12.
Y65W showed an abundance fitness of -0.044 ± 0.11.
Variant Y65S has an abundance fitness of -0.208 ± 0.075.
In the case of Y65I, the abundance fitness is reported as -0.081 ± 0.24.
Work on Y65V yielded an abundance fitness of 0.02 ± 0.059.
Y65E showed an abundance fitness of -0.092 ± 0.09.
In the case of Y65G, the abundance fitness is reported as -0.218 ± 0.064.
Work on Y65H yielded an abundance fitness of -0.1 ± 0.18.
In the case of Y65M, the abundance fitness is reported as -0.093 ± 0.09.

Variants of: B2
Assay: as above
Conditions: Homo sapiens
For R8C, the abundance fitness was -0.12 ± 0.044.
In the case of R8V, the abundance fitness is reported as -0.038 ± 0.029.
R8F showed an abundance fitness of 0.013 ± 0.043.
R8A gave an abundance fitness of -0.009 ± 0.032.
R8S gave an abundance fitness of -0.024 ± 0.032.
R8G showed an abundance fitness of -0.052 ± 0.027.
Work on R8P yielded an abundance fitness of -0.116 ± 0.048.
In the case of R8D, the abundance fitness is reported as 0.029 ± 0.042.
For R8E, the abundance fitness was 0.034 ± 0.038.
With R8L the abundance fitness was -0.011 ± 0.028.
In the case of R8M, the abundance fitness is reported as -0.014 ± 0.042.
R8I showed an abundance fitness of 0.006 ± 0.046.
In the case of R8Q, the abundance fitness is reported as 0.018 ± 0.043.
R8H showed an abundance fitness of -0.058 ± 0.052.
In the case of R8N, the abundance fitness is reported as -0.09 ± 0.062.
R8Y showed an abundance fitness of -0.059 ± 0.055.
R8W gave an abundance fitness of -0.043 ± 0.033.
In the case of P11Q, the abundance fitness is reported as -0.131 ± 0.03.
Work on P11H yielded an abundance fitness of -0.208 ± 0.054.
For P11G, the abundance fitness was -0.128 ± 0.021.
P11T showed an abundance fitness of -0.111 ± 0.029.
P11W gave an abundance fitness of -0.405 ± 0.029.
For P11E, the abundance fitness was -0.117 ± 0.031.
With P11D the abundance fitness was -0.063 ± 0.048.
With P11Y the abundance fitness was -0.391 ± 0.085.
For P11C, the abundance fitness was -0.243 ± 0.033.
For P11A, the abundance fitness was -0.137 ± 0.028.
For P11L, the abundance fitness was -0.143 ± 0.023.
Work on P11I yielded an abundance fitness of -0.162 ± 0.042.
P11V showed an abundance fitness of -0.247 ± 0.026.
With P11N the abundance fitness was -0.157 ± 0.043.
For P11K, the abundance fitness was -0.09 ± 0.031.
Variant P11R has an abundance fitness of -0.123 ± 0.021.
P11F gave an abundance fitness of -0.329 ± 0.046.
For P11M, the abundance fitness was -0.148 ± 0.031.
With E6T the abundance fitness was -0.009 ± 0.027.
For E6K, the abundance fitness was 0.002 ± 0.029.
With E6I the abundance fitness was -0.006 ± 0.033.
Work on E6C yielded an abundance fitness of -0.065 ± 0.03.
E6M gave an abundance fitness of -0.061 ± 0.028.
In the case of E6P, the abundance fitness is reported as -0.184 ± 0.028.
With E6S the abundance fitness was -0.016 ± 0.023.
E6A gave an abundance fitness of -0.086 ± 0.022.
With E6G the abundance fitness was -0.144 ± 0.02.
Work on E6Y yielded an abundance fitness of 0.007 ± 0.037.
In the case of E6N, the abundance fitness is reported as -0.014 ± 0.043.
E6Q showed an abundance fitness of -0.03 ± 0.029.
For E6F, the abundance fitness was 0.043 ± 0.037.
With E6R the abundance fitness was -0.029 ± 0.02.
In the case of E6L, the abundance fitness is reported as -0.018 ± 0.022.
For E6H, the abundance fitness was 0.039 ± 0.039.
For E6V, the abundance fitness was -0.091 ± 0.022.
E6W gave an abundance fitness of -0.047 ± 0.025.
For P2E, the abundance fitness was 0.044 ± 0.032.
In the case of P2C, the abundance fitness is reported as -0.066 ± 0.044.
For P2M, the abundance fitness was 0.023 ± 0.041.
With P2W the abundance fitness was -0.119 ± 0.033.
With P2L the abundance fitness was -0.015 ± 0.026.
P2Y gave an abundance fitness of -0.004 ± 0.05.
With P2F the abundance fitness was -0.012 ± 0.052.
P2V showed an abundance fitness of -0.049 ± 0.027.
Work on P2D yielded an abundance fitness of -0.083 ± 0.042.
